Key:
cc-KDM4A = experiment: MALDI-TOF-MS demethylation, truncated KDM4A; type: biochemical, human
Method: (§1) The enzyme kinetics were measured using a Formaldehyde DeHydrogenase Assay (FDH-Assay) and the demethylation of substrates was confirmed when possible by MALDI-TOF-MS, see File S1 for details. The test solution contained 50 mM HEPES (pH 7.5), 50 mM NaCl, 50 µM FeSO4, 500 µM α-KG, 500 µM ascorbate, 2 mM NAD, approximately 0.05 unit of FDH and e.g. 4.88 µM KDM4C (enzyme concentration varied between batches). The reference solution was comprised of the same except substrate. The assay was initiated by adding various concentrations of H3 peptide substrates e.g. H3(1–24)K9me3 (10–1000 µM) and the increase in NADH fluorescence was measured over 15–30 minutes in 30 second intervals. Data analysis and kinetic values were obtained using programs Excel and GraphPad Prism® 5.0. For details, see File S1.
(§2) The reaction mixture was diluted 1: 9 with a saturated solution of α-cyano-4-hydroxycinnamic acid (Aldrich) in a mixture of 65 % acetonitrile and 35 % MilliQ water containing 0.1 % TFA. 1 µl of the sample was spotted onto the target and air dried. The MALDI-TOF MS was carried out on an Ultraflex TOF/TOF (Bruker) operated in positive ion mode with an Ion source voltage of 25 kV, a lens voltage of 7.5 kV and a reflector voltage of 26.3 kV. The system was run in deflection mode with a mass suppression of 500 Da. […]

cc-KDM4C = experiment: MALDI-TOF-MS demethylation, truncated KDM4C; type: biochemical, human
Method: as §1, §2

human cc-KDM4A = target: T1, human cc-KDM4A (Homo sapiens, UniProt O75164); experiment: competition experiment H3(1–24)K9me3-T11(ph) with H3(1–24)K9me3, truncated KDM4A; type: biochemical
T1 construct: Truncated constructs of KDM4A and KDM4C containing only the catalytic cores (cc-KDM4A/cc-KDM4C); made in house
T1 sequence (O75164 1-350 limits assumed): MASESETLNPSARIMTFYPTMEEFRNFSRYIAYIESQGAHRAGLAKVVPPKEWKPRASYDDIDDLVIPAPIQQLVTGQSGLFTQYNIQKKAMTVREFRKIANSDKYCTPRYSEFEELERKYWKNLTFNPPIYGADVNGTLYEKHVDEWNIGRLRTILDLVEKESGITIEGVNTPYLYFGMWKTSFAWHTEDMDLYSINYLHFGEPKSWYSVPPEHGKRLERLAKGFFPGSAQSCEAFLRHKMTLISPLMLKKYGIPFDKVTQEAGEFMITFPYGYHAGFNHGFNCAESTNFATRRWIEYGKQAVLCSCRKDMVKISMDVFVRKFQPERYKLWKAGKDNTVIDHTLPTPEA
Method: (§3) To investigate if H3(1–24)K9me3-T11(ph) could bind to the enzyme and act as an inhibitor, a competition experiment with H3(1–24)K9me3 was carried out.
as §1

human cc-KDM4C = target: T2, human cc-KDM4C (Homo sapiens, UniProt Q9H3R0); experiment: competition experiment H3(1–24)K9me3-T11(ph) with H3(1–24)K9me3, truncated KDM4C; type: biochemical
T2 construct: Truncated constructs of KDM4A and KDM4C containing only the catalytic cores (cc-KDM4A/cc-KDM4C); made in house
T2 sequence (Q9H3R0 1-349 limits assumed): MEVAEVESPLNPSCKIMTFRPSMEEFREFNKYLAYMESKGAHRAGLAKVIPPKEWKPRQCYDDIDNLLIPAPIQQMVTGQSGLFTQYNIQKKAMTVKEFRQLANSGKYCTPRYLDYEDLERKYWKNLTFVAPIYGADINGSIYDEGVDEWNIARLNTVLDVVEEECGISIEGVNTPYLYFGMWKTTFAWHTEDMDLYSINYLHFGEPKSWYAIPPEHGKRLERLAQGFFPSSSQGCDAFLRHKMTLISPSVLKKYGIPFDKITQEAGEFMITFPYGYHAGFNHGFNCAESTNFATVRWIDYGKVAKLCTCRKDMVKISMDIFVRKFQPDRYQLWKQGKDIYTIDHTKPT
Method: as §3, §1

[1] = cc-KDM4A, H3(1–24)K9me3T11(ph) then H3(1–24)K9me3*
[2] = cc-KDM4C, H3(1–24)K9me3T11(ph) then H3(1–24)K9me3*

competition / inhibition (in words) (human cc-KDM4A; competition with H3(1–24)K9me3, results not shown, enzyme not named, cc-KDM4A in Table 1)	competition / inhibition (in words) (human cc-KDM4C; competition with H3(1–24)K9me3, results not shown, enzyme not named, cc-KDM4C in Table 1)	Substance	demethylation by MALDI-TOF-MS (in words) (cc-KDM4A)	demethylation by MALDI-TOF-MS (in words) (cc-KDM4C)	K m (human cc-KDM4A; [1])	k cat (human cc-KDM4A; [1])	k cat /K m (human cc-KDM4A; cc-KDM4A, H3(1–24)K9me3T11(ph) then H3(1–24)K9me3*, unit: (min^−1 * µM^−1) * 10^3)	K m (human cc-KDM4C; [2])	k cat (human cc-KDM4C; [2])
does not act as an inhibitor	does not act as an inhibitor	H3(1–24)K9me3T11(ph): H3(1–24)K9me3 with phosphorylation of threonine 11	no detectable turnover	no detectable turnover					
		H3(1–24)K9me3: truncated histone tail, 24 first amino acids from the N-terminus of H3, trimethylated lysine 9; control peptide			132±23	1.4±0.08	10.6±1.9	43±22	0.3±0.05
		H3(1–24)K4me3K9me3: bis-tri-methylated substrate, trimethylated K4 in combination with H3K9me3	PTM product between mark K4me3 and mark K9me3	PTM product between mark K4me3 and mark K9me3					

Source: paper PMC3699631, “Posttranslational Modifications of the Histone 3 Tail and Their Impact on the Activity of Histone Lysine Demethylases In Vitro” (PLoS ONE, 2013)
